{"source": "patent US20240239878A1", "about": "(SHANGHAI QILU PHARMACEUTICAL RESEARCH AND DEVELOPMENT CENTRE, published 2024)", "key": {"[1]": {"molecular_target": "T1, human DLL3 on SHP-77 cells (human, UniProt Q9NYJ7 27-618)", "T1 construct": "also called DLL3-expressing cells (SHP-77)", "T1 sequence": "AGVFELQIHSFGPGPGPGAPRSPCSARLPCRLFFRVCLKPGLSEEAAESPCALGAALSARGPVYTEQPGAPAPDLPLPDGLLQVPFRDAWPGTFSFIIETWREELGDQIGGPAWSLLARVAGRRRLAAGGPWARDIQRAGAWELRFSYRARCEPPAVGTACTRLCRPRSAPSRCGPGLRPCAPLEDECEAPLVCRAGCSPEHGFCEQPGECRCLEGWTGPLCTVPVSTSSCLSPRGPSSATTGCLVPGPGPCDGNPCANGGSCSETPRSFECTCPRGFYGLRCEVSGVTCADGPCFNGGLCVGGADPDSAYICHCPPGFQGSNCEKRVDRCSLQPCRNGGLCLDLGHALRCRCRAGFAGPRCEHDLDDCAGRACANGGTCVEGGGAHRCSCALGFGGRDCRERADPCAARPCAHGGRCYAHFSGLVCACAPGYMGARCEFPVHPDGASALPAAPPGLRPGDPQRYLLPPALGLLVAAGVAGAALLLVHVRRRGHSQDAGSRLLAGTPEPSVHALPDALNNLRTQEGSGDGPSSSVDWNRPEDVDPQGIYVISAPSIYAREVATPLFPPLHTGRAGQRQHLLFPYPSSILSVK", "experiment": "flow cytometry, SHP-77 cells", "method_in_brief": "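Trypsinised SHP-77 cells in 1% BSA/PBS were incubated with antibody (100 nM top, 10-fold steps, 7 concentrations) for 1 h at 4° C. Bound antibody was detected with goat anti-human IgG Fc-PE for 0.5 h at 4° C and read as PE mean fluorescence intensity. EC50 and Top MFI were derived from the curves.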"}, "[2]": {"molecular_target": "T2, human DLL4 (Sino Biological, Cat. No. 10171-H08H) (human, UniProt Q9NR61 27-529)", "T2 construct": "also called family protein DLL4", "T2 sequence (Q9NR61 27-529 limits assumed)": "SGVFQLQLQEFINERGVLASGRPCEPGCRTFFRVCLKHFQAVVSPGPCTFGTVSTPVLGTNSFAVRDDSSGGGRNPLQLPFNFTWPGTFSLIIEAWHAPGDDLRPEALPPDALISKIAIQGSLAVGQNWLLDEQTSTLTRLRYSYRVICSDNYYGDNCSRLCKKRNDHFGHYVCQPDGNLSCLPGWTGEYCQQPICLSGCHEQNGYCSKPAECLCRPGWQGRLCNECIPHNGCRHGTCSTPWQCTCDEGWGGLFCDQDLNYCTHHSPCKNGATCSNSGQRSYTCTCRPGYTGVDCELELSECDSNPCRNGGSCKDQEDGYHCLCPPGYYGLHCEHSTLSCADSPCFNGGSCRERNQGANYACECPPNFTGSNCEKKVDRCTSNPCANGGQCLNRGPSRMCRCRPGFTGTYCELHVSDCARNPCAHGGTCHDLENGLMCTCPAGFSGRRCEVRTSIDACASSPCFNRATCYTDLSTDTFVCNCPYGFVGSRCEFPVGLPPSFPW", "experiment": "ELISA, plate coated with human DLL4 at 1 ug/mL, OD 450nm", "protocol": "The antigenic proteins human DLL1 (SinoBiological, cat. No. 11635-H08H) or human DLL4 (SinoBiological, cat. No. 10171-H08H) were dissolved in 1×PBS at a concentration of 1 μg/mL. […] The antigen was washed three times with PBST, 300 μL/well. The antigen was blocked with 1% BSA (in PBST), 200 µL/well, and incubated at 37° C. for 1.5 hours.\nAntibodies to be tested were diluted with 1% BSA (in PBS) at a starting concentration of 100 nM, downwards by a 10-fold gradient for 7 concentrations. The plates were washed three times with PBST, 300 μL/well. The diluted antibody was added to an ELISA plate at 100 μL/well and incubated at room temperature for 2 hours. The antibodies were washed three times with PBST, 300 μL/well. The secondary antibodies (goat anti-human IgG Fc for DLL4 (HRP), 1:20000 dilution; HRP goat anti-mouse IgG (H+L) for DLL1, 1:10000 dilution) were diluted with 1% BSA in PBST. The diluted secondary antibodies were added to the ELISA plate at 100 μL/well and incubated at room temperature for 1 hour. The plates were washed 6 times with PBST, 300 μL/well. The developing solution (TMA and TMB 1:1 mixed) was prepared. The developing solution was added to the plate, 100 μL/well, and incubated in the dark for 5 min. 50 μL of ELISA stop solution was added to the plate and shaken well."}, "[3]": {"molecular_target": "T3, Cynomolgus monkey DLL3 antigen protein (Kactus Biosystems, Cat. No. CM103) (Cynomolgus monkey, UniProt Q9NYJ7 27-490 (human entry))", "T3 construct": "also called cyno DLL3", "T3 chain": "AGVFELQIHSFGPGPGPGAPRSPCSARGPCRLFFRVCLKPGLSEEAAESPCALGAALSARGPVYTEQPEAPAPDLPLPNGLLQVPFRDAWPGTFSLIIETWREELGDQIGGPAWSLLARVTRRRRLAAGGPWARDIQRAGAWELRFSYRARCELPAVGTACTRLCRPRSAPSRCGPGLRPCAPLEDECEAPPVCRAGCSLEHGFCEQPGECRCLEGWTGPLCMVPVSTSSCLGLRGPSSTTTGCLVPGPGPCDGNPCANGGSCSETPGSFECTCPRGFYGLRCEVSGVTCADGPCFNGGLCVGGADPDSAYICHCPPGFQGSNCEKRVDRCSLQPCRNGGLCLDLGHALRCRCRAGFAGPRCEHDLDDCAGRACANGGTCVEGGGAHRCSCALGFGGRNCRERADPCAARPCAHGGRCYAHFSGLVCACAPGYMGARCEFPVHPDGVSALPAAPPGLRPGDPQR", "experiment": "affinity assay with Cynomolgus monkey DLL3 antigen protein (kinetics; method not restated, Biacore as in Example 18 implied)"}, "[4]": {"molecular_target": "T1, human DLL3 on SHP-77 cells", "experiment": "flow cytometry, SHP-77 cells", "remark": "listed apart in the source"}}, "note": "Read-outs that look alike come from different tables or passages of the source.", "data": [{"binder": "H2-39E2D11 mouse hybridoma-derived humanized anti-DLL3 antibody (antibody, V domains shown) VH: QVQLVQSGAEVKKPGASVKVSCKASGYTFISYWITWVRQAPGQGLEWMGDIYPGSGSTTNYNEKFKSRVTMTRDTSTSTVYMELSSLRSEDTAVYYCARETTVGGAYAMDYWGQGTLVTVSS VL: EIVLTQSPATLSLSPGERATLSCRASQSINNNLHWYQQKPGQAPRLLIKYVSQSISGIPARFSGSGSGTDFTLTISSLEPEDFAVYYCQQTNSWPLTFGGGTKLEIK", "values": [{"measurement": "EC50", "setting": "[1]", "result": 1.12, "unit": "nM"}, {"measurement": "Top MFI", "setting": "[1]", "result": 1570, "unit": "MFI"}, {"measurement": "binding result", "setting": "[2]", "result": "no binding (tested: 100 nM)"}, {"measurement": "Kd", "setting": "[3]", "result": 0.143, "unit": "nM"}, {"measurement": "koff", "setting": "[3]", "result": "3.16e-05", "unit": "s⁻¹"}, {"measurement": "kon", "setting": "[3]", "result": 221000, "unit": "M⁻¹ s⁻¹"}]}, {"binder": "hDLL3-3-1 camelid-derived humanized anti-DLL3 antibody (antibody, human IgG1, V domains shown) VH: EVQLVESGGGLVQPGGSLRLSCAASTYTISSGYMGWFRQAPGKEREGVAAIYIGGSTTLYADSVKGRFTISRDNSKNTLYLQMNSLRAEDTAVYYCAAQLRPNSAYHPLDGRKYNYWGQGTLVTVSS", "values": [{"measurement": "EC50", "setting": "[4]", "result": 0.068, "unit": "nM"}, {"measurement": "Top MFI", "setting": "[4]", "result": 1080, "unit": "MFI"}]}]}
